Results published in patent US20230001007A1, “Glycan-Interacting Compounds and Methods of Use” (Seagen Inc., priority 2017, published 2023).

Columns and labels:
[1] = system: CRC Tissue Microarray (TMA) cores; test: CRC Tissue Microarray staining for STn with and without neuraminidase; format: binding
Source text: Further, a CRC Tissue Microarray (TMA) (NBP2-30214; Novus Bio, Littleton, Colo.) was stained for STn expression. The array consists of 59 cores with and without a neuraminidase (sialidase) enzyme treatment. Neuraminidase specifically cleaves terminal sialic acids and destroys STn antigen present on the tissue.

LS174T = test: STn expression on CRC line by flow cytometry using anti-STn antibodies; format: cell-based; details: detected using mSIA103
Experimental: (§1) Mouse antibodies were characterized for in vitro and in vivo efficacy in breast, colon and ovarian cancer models. The antibodies were used to identify CRC cell lines that express STn on the surface. Five CRC lines were incubated in vitro and grown to confluency. % STn expression was determined by flow cytometry using anti-STn antibodies. Approximately 30-70% of cultured SW403, COL0205 and LS174T cells naturally expressed STn on the surface (as detected using mSIA103), while HT29 and RKO had very little to no detectable STn (as detected using hSIA101) on their cell surface (see Table 6).

COLO205 = test: as above; format: cell-based; details: detected using mSIA103
Experimental: as §1

SW403 = test: as above; format: cell-based; details: detected using mSIA103
Experimental: as §1

staining on normal colon ([1]; 8 cores): restricted to crypt and surface mucosa
staining after neuraminidase treatment ([1]; 250 mU/mL neuraminidase, all 45 positive cores): abolished
neoplastic cores with some level of positive membrane staining ([1]; out of the 51 neoplastic cores on the TMA): 45
B1: mSIA103: mouse IgG2a anti-STn antibody, VH SEQ ID NO: 5, VL SEQ ID NO: 6; variable domains from 3F1 IgG1 antibodies (antibody, V domains shown)
VH: QVQLQQSDAELVKPGASVKISCKASGYTFTDHAIHWVKQKPEQGLDWIGYISPGNGDIKYNEKFKDKVTLTADKSSSTACMHLNSLTSEDSAVYFCKRSLLALDYWGQGTTLTVSS
VL: DIVMTQSHKFMSTSVGDRVSITCKASQDVGTNIAWYQQKPGRSPKVLIYSASTRHTGVPDRFTGSGSGTDFTLTISNVQSEDLTDYFCQQYSSFPLTFGVGTKLELK
modifications: mouse IgG2a constant regions
notes: variable domains from 3F1 IgG1 antibodies
% STn expression (LS174T): 69.9%
% STn expression (COLO205): 67.7%
% STn expression (SW403): 30.0%
